# Assay: yeast display, Sf9 membrane polyspecificity reagent, FACS + sequencing; frameworks hold sequencing errors
# In short: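 Nanobodies came from a synthetic yeast display library in Saccharomyces cerevisiae BJ5465, induced with galactose for 36–48 hours and stained for 1 hour at 4 °C with 10% biotinylated, detergent-solubilized Sf9 membrane reagent. Cells were enriched on streptavidin microbeads and then FACS-sorted, with low and high (top ~1%) gates set on anti-HA fluorescence for expression and streptavidin fluorescence for reagent binding. Each polyreactivity label reflects the gate a clone came from. Genes were amplified by colony PCR, sequenced by MiSeq 2 × 250 and filtered by CDR length.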
row,Sequence,polyreactivity (PSR sort gate)
1,QVQLVESGGGLVQAGGSLRLSCAASGRTFWVYAMGWYRQAPGKERELVAAISWRAGSTYYADSVKGRFTISRDNAKNTVYLLMNSLKPEVTAVYYCAAETYTTLDYWGQGTQVTVSS,high polyreactivity
2,QVQLVESGGGLVQAGGSLRLSCAASGRTFWVYAMGWYRQAPGKERELVASISWSVGSTYYADSVKGRFTISRDNAKNTVYLQMNSLKPEDTAVYYCAVDPATNVEGDYWGQGTQVTVSS,low polyreactivity
3,QVQLVESGGGLVQAGGSLRLSCAASGRTFWYYAMGWYRPAPGKERELVATITGGARTTYADSVKGRFTISRDNAKNTVYLQMNSLKPEDTAVYYCARARNSVKRGYYYWGQGTQVTVSS,high polyreactivity
4,QVQLVESGGGLVQAGGSLRLSCAASGRTFWYYAMGWYRQAPGKEREFVAAISYSGDGTYYADSVKGRFTISRDNAKNTVYLQMNSLKPEDTAVYYCAAEWYDPTLPTAWSEYEYWGQGTQVTVSS,high polyreactivity
5,QVQLVESGGGLVQAGGSLRLSCAASGRTFWYYAMGWYRQAPGKERELVAASTYRGGSTYYADSVKGRFTISRDNVKNTVYLQMNSLKPEDTAVYYCAAPYGEDYWRQGTQVTVSS,high polyreactivity
6,QVQLVESGGGLVQAGGSLRLSCAASGRTFWYYAMGWYRQAPGKERELVATISYRGGSTYYADSVKGRFTISRDNAKNTVYLQMNSLKPEDTAVYYCAAKQWWGGRPKVDYWGQGTQVTVSS,high polyreactivity
7,QVQLVESGGGLVQAGGSLRLSCAASGRTFWYYAMGWYRQAPGKERELVAYADSVKGRFTISRDNAKNTVYLQMNSLIPEDTAVYYCAVGPVVWFSSSLYYTDYYYWGQGTQVTVSS,low polyreactivity
8,QVQLVESGGGLVQAGGSLRLSCAASGRTFWYYAMGWYRQSPGKERELVAVITSGSSTYYADSVKGRFTISRDNAKNTDYLQMTSLKPEDTAVYYCAVGRTYRRYSAASYNYWGQGTQVTVSS,high polyreactivity
9,QVQLVESGGGLVQAGGSLRLSCAASGRTFWYYPMGWYRQAPGKEREFVAAISWSGGSTYYADSVKGRFTISRDNAKNTVYLQMNSLKPEDTAVYYCAADRYDSSQFYYWGQGTQVTVSS,low polyreactivity
10,QVQLVESGGGLVQAGGSLRLSCAASGRTFWYYTMGWYRQAPGKERELVAAISGSGGRTYYADSVKGRFTISRDNAKNTVYLQMNSLKPEDTAVYYCAARRAYFVAYIYDRDYWGQGTQVTVSS,high polyreactivity
11,QVQLVESGGGLVQAGGSLRLSCAASGRTFWYYTMGWYRQAPGKERELVAAISSGGTTNYADSVKGRFTISRDNAKNTVYLQMNSLKPEDTAVYYCAAEANSGDGYYWGQGTQVTVSS,high polyreactivity
12,QVQLVESGGGLVQAGGSLRLSCAASGRTFWYYTMGWYRQAPGKERELVASISRVTSTYYADSVKGRLTISRDNAKNTVYLQMNSLKPEDTAVYYCAADRTRYYVGYRWTGNKMDYWGQGSQVTVSS,low polyreactivity
13,QVQLVESGGGLVQAGGSLRLSCAASGRTFWYYTMGWYRQAPGKEWELVAAIRASGGGTYADSVKGLFTISRDNAKNTVYLQMNSLNPEDTAVYYCAVRNVYGWYGSRDYWGQGTQVTVSS,high polyreactivity
14,QVQLVESGGGLVQAGGSLRLSCAASGRTFYANTMGWYRQAPGKERELVAGITSGGSTSYADSVKGRFTISRDNAKNTVYLQMNSLKPVDTAVYYCAAQFYRYTATGYYADGYWGQGTQVTVSS,low polyreactivity
15,QVQLVESGGGLVQAGGSLRLSCAASGRTFYAYAMGWYRQAPGKERELVAAITSGASTYYADSVKGRFTISRDNAKNTVYLQMISLKPEDTAVYYCAKRVRYYKPGYDYWGQGTQVTVSS,low polyreactivity
16,QVQLVESGGGLVQAGGSLRLSCAASGRTFYAYTMGWYRQAPGKERELVAAISSSGGSTYYADSVKGRFTISRDNAKNTVYLQMNSLKPEDTAVYYCAAVWYFNRRVSGYYYWGQGTQVTVSS,high polyreactivity
17,QVQLVESGGGLVQAGGSLRLSCAASGRTFYDNAMRWYRQAPGKERELDAAITNGGRTNYADSVKGRFTISRDNAKNTVYLQMNSLKPEDTAVYYCAADFWPWYRYYSGGVDYWGQGTQVTVSS,high polyreactivity
18,QVQLVESGGGLVQAGGSLRLSCAASGRTFYDYAMGWYRQAPGKEREFVARITYSGGGTYYADSVKGRFTISRDNAKNTVYLQMNSLKPEDTAVYYCARPFIRYLGLTRNGYTSDYWGQGTQVTVSS,high polyreactivity
19,QVQLVESGGGLVQAGGSLRLSCAASGRTFYDYAMGWYRQAPGKERELVAAITYRDGTTYYADSVKGRFTISRDNAKNTVYLQMNSLKPEDTAVYDCGKTYYYSLGHGYNYWGQGTQVTVSS,low polyreactivity
20,QVQLVESGGGLVQAGGSLRLSCAASGRTFYFNAMGWYRQAPGKERELVAGISGDGSTNYADSVKGRFTISRDNAKNTFYLQMNSLKPEDTAVYYCAKTMGSQSYDFDYWGQGTQVTVSS,low polyreactivity
21,QVQLVESGGGLVQAGGSLRLSCAASGRTFYGNAMGWYRQAPGKERELVAAITSGGGSTRYADSVKGRFTISRDNANNTVYLQMNSLKPEHTAVYYCAAYRQGTAYDYWGQGTQVTVSS,high polyreactivity
22,QVQLVESGGGLVQAGGSLRLSCAASGRTFYGYAMGWYRQAPGKERELVAAISKSGGRTYYADSVKGRFTISRDNAKNTVYLQMNSLKPEDSAVYYCNAPVTGAGTYPPYDSWGQGTQVTVSS,high polyreactivity

row,Sequence,polyreactivity (PSR sort gate)
1,QVQLVESGGGLVQAGGSLRLSCAASGRTFYGYAMGWYRQAPGKERELVAAITQRSGSTYYADSVKGRFTISRDNAKNTVYLQMNSLKPEDTAVYYYNADKSQRVRRGDYWGQGTQVTVSS,high polyreactivity
2,QVQLVESGGGLVQAGGSLRLSCAASGRTFYGYAMGWYRQAPGKERELVAGITSRVGSTYYADSVKGRFTISRDNAKNNVYLQMNSLKPEDTAVYYCAADRYAVRSYHYDYWGQGTQVTVSS,low polyreactivity
3,QVQLVESGGGLVQAGGSLRLSCAASGRTFYGYAMGWYRQAPGKERELVATITRRGGSTYYADSVKGRFTISRDNAKNTVYLQMNSLKPEDTAVYYCARQGDQYYRDGDDYWGQGTQVTVSS,high polyreactivity
4,QVQLVESGGGLVQAGGSLRLSCAASGRTFYGYAMGWYRQAPGKERELVAVITSGVRTNYADSVKGRFTISRDNAKNTVYLQMNSLKPEDTAVYYCAARGTLALRDHYGYWGQGTQVNVSS,high polyreactivity
5,QVQLVESGGGLVQAGGSLRLSCAASGRTFYGYGMGWYRQAPGKERELVAGISVRGGSTYYADSVKGRFTISRDNAKNTVYLQMNSLKPEDTAVYYCAALGWRPTYYYWGHGTQVTVSS,high polyreactivity
6,QVQLVESGGGLVQAGGSLRLSCAASGRTFYHYAMGWYRQAPGKERELFAAISWTGGSTSSTYYADSVKGRFTISRDNAKNTVYLQMNSLKPEDTAVYYCAADFWWGHTWQDDYWGQGTQVTVSS,low polyreactivity
7,QVQLVESGGGLVQAGGSLRLSCAASGRTFYHYAMGWYRQAPGKERELVAAITGSGGSTSYADSVKGRFTISRDNAKNTVYLQMNTLKPEDTAVYYCAAVQFPTPLLLYDSWGQGTQVTVSS,low polyreactivity
8,QVQLVESGGGLVQAGGSLRLSCAASGRTFYHYVMGWYRQEPGKERELVAAITSRGGSTYYADSVKGRFTISRDNAKNTVYLQMNSLKPEDTAVYYCAARLNYGNKYDYWGQGTQVTVSS,high polyreactivity
9,QVQLVESGGGLVQAGGSLRLSCAASGRTFYIYAMGGNRQATGKERELVAAITWRGGRTYYADSVKGRFTISRDNAKNTFYLQMNSLKPEDTAVYYCGARTGQGPMYKHWGQGTQVTLSS,high polyreactivity
10,QVQLVESGGGLVQAGGSLRLSCAASGRTFYIYAMGWYRPAPGKERELVAAITSGRSTSYADSVKGRFTISRDNAKNTVYLQMNSLKPEDTAVYYCAADQYTYWFGYDYWGQGTQVTVSS,low polyreactivity
11,QVQLVESGGGLVQAGGSLRLSCAASGRTFYIYAMGWYRQAPAKERELVAAITWSRGSSTYYADSVKGRFTISRDNAKNTVYLQMNSLKPEDTAVYYCAAETHYYWYEQYDYCGQGTQVTVSS,high polyreactivity
12,QVQLVESGGGLVQAGGSLRLSCAASGRTFYIYAMGWYRQAPGKERELVAAISWGSGSTYYADSVKGRFTISRDNAKNTVYLQMNSLKPEDTAVYYCAAEYAYPSEWTYDYWGQGTQVTVSS,low polyreactivity
13,QVQLVESGGGLVQAGGSLRLSCAASGRTFYIYAMGWYRQAPGTERELVAAITYGGGRTFYADSVKGRFTISRDKAKNTVYLQMNSLKPEDTAVYYCAADGRTLGRRYYYWGLGTQVTVSS,high polyreactivity
14,QVQLVESGGGLVQAGGSLRLSCAASGRTFYIYVMGWDRQAPGKERELVAGITVRGGITNYADSVKGGFTSSRDNAKNTVYLQMNSLKPEDTAVYYCAVDDLGSEYDYWGQGTQVTVSS,low polyreactivity
15,QVQLVESGGGLVQAGGSLRLSCAASGRTFYKNAMGWYRQAPGKEREFVASISVSGGRTYYADSVKGRFTISRDNAKNTVYLQMNSLKPEDTAVYYCNARASPLSQRDYWGQGTQVTVSS,low polyreactivity
16,QVQLVESGGGLVQAGGSLRLSCAASGRTFYKYAMGWYRQAPGKERELVAAISSRGGRTYYADSVKGRFTISRDNAKNTVYLQMNSLKPEDTAVYYCAAKGRPDGKYDYWGQGTQVTVSS,high polyreactivity
17,QVQLVESGGGLVQAGGSLRLSCAASGRTFYLNAMGWYRPAPGKERELVAAITRTGGRTYYADSVKGRFTISRDNAKNTVYLQMNSLKPEDTAVYYCAADYVNYSYEYWGQGTQVTVSS,high polyreactivity
18,QVQLVESGGGLVQAGGSLRLSCAASGRTFYLYTMGWYRQAPGKERELVATISDGGGGTYYADSVKGRFTISRDNAKNTVYLQMNSLKPEDPAVYYCAADPIDVRDVPIPHVDFDYWGQGTQVTVSS,low polyreactivity
19,QVQLVESGGGLVQAGGSLRLSCAASGRTFYNAMGWYRQAPGKERELVAAITTGGGTKYADSVKGRFTISRDNAKNTVYLQMNSLKPEDTEVYYCATDAPDRTHSDSGFDAGYDYWGQGTQVTLSS,low polyreactivity
20,QVQLVESGGGLVQAGGSLRLSCAASGRTFYNTMGWYRQPPGKERELVAAISRGGITNYADSVKGRFTISRDNAKNTVYLQMNSLKPEDTAVYYCNAEPKLYYYYYKFDYWGQGTQVTVAS,high polyreactivity
21,QVQLVESGGGLVQAGGSLRLSCAASGRTFYNYAMVWYRQAPGKERELVAAIDWGSDSTYYADSVKGRFTISRDNAKNTVYLQMNSLKPEDTAVYYCAAYLVSVYSRTYDYWGQGTQVTVSS,low polyreactivity

# Source: the nanobody polyreactivity screen of Harvey et al. (2022)
